Source: US8541373B2, “BChE albumin fusions for the treatment of cocaine abuse” (priority 2009, dated 2013)
Where “and” joins values, the source holds several entries; their conditions need not be identical. Equal entries are not always repeated.

System: cocaine
Test: AlbuBChE PK/PD analysis, sigmoidal inhibitory effect Emax model (cocaine AUC)
Text: AlbuBChE PK/PD relationship was defined using the computer software WinNonlin Professional (Version 4.0.1 Pharsight Corporation, USA). Specifically the direct sigmoidal inhibitory Effect Emax model was use in which maximum effect (Emax) as measured by cocaine AUC was assumed at AlbuBChE concentration of zero. The model equation can be described as follows: Inhibitory Effect Sigmoid Emax, C=0 at Emax, C=infinity at Eo E=Emax−(Emax−E0)*(C**Gamma/(C**Gamma+EC50**Gamma))
The PD parameter used in the analysis was cocaine AUC. PK parameters used in the model were AlbuBChE plasma concentrations at 2, 48, 96, 120, and 240 hr post-AlbuBChE dose. Due to the fact that AlbuBChE concentration was not measured at 2 hr post-AlbuBChE dose, the concentration at 3 hr postdose was used in the analysis with the assumptions that AlbuBChE concentration at 3 hr post AlbuBChE dose may reflect AlbuBChE conc. at 2 hr post AlbuBChE dose.

## AlbuBChE
0.2 mg/kg IM, time 2 hr
  AlbuBChE Conc. used in PK/PD analysis, individual animals: 107 ng/mL and 257 ng/mL and 196 ng/mL
0.2 mg/kg IM, time 48 hr
  AlbuBChE Conc. used in PK/PD analysis, individual animals: 0 ng/mL and 66.4 ng/mL and 80.7 ng/mL
0.2 mg/kg IM, time 96 hr
  AlbuBChE Conc. used in PK/PD analysis, individual animals: 0 ng/mL (2×) and 30 ng/mL
0.2 mg/kg IM, time 120 hr
  AlbuBChE Conc. used in PK/PD analysis, individual animals: 0 ng/mL
0.2 mg/kg IM, time 240 hr
  AlbuBChE Conc. used in PK/PD analysis, individual animals: 0 ng/mL
0.2 mg/kg IM, cocaine 1 mg/kg IV 2 hr post-AlbuBChE
  Cocaine AUC(0-t), individual animals: 13317 ng·min/mL and 10812 ng·min/mL and 11504 ng·min/mL
0.2 mg/kg IM, cocaine 1 mg/kg IV 48 hr post-AlbuBChE
  Cocaine AUC(0-t), individual animals: 8550 ng·min/mL and 7315 ng·min/mL and 7276 ng·min/mL
0.2 mg/kg IM, cocaine 1 mg/kg IV 96 hr post-AlbuBChE
  Cocaine AUC(0-t), individual animals: 13936 ng·min/mL and 8978 ng·min/mL and 10522 ng·min/mL
0.2 mg/kg IM, cocaine 1 mg/kg IV 120 hr post-AlbuBChE
  Cocaine AUC(0-t), individual animals: 11293 ng·min/mL and 11428 ng·min/mL and 12111 ng·min/mL
0.2 mg/kg IM, cocaine 1 mg/kg IV 240 hr post-AlbuBChE
  Cocaine AUC(0-t), individual animals: 13669 ng·min/mL and 12762 ng·min/mL and 14649 ng·min/mL
1 mg/kg IM, time 2 hr
  AlbuBChE Conc. used in PK/PD analysis, individual animals: 1362 ng/mL and 918 ng/mL and 1777 ng/mL
1 mg/kg IM, time 48 hr
  AlbuBChE Conc. used in PK/PD analysis, individual animals: 389 ng/mL and 363 ng/mL and 264 ng/mL
1 mg/kg IM, time 96 hr
  AlbuBChE Conc. used in PK/PD analysis, individual animals: 87 ng/mL and 132 ng/mL and 75 ng/mL
1 mg/kg IM, time 120 hr
  AlbuBChE Conc. used in PK/PD analysis, individual animals: 36 ng/mL and 72 ng/mL and 38 ng/mL
1 mg/kg IM, time 240 hr
  AlbuBChE Conc. used in PK/PD analysis, individual animals: 0 ng/mL
1 mg/kg IM, cocaine 1 mg/kg IV 2 hr post-AlbuBChE
  Cocaine AUC(0-t), individual animals: 6597 ng·min/mL and 9746 ng·min/mL and 7297 ng·min/mL
1 mg/kg IM, cocaine 1 mg/kg IV 48 hr post-AlbuBChE
  Cocaine AUC(0-t), individual animals: 6025 ng·min/mL and 5033 ng·min/mL and 6839 ng·min/mL
1 mg/kg IM, cocaine 1 mg/kg IV 96 hr post-AlbuBChE
  Cocaine AUC(0-t), individual animals: 9166 ng·min/mL and 9925 ng·min/mL and 11042 ng·min/mL
1 mg/kg IM, cocaine 1 mg/kg IV 120 hr post-AlbuBChE
  Cocaine AUC(0-t), individual animals: 10451 ng·min/mL and 11561 ng·min/mL and 12568 ng·min/mL
1 mg/kg IM, cocaine 1 mg/kg IV 240 hr post-AlbuBChE
  Cocaine AUC(0-t), individual animals: 14533 ng·min/mL and 13998 ng·min/mL and 14560 ng·min/mL
5 mg/kg IM, time 2 hr
  AlbuBChE Conc. used in PK/PD analysis, individual animals: 3740 ng/mL and 9627 ng/mL and 4923 ng/mL
5 mg/kg IM, time 48 hr
  AlbuBChE Conc. used in PK/PD analysis, individual animals: 1330 ng/mL and 2644 ng/mL and 1605 ng/mL
5 mg/kg IM, time 96 hr
  AlbuBChE Conc. used in PK/PD analysis, individual animals: 415 ng/mL and 733 ng/mL and 455 ng/mL
5 mg/kg IM, time 120 hr
  AlbuBChE Conc. used in PK/PD analysis, individual animals: 217 ng/mL and 326 ng/mL and 224 ng/mL
5 mg/kg IM, time 240 hr
  AlbuBChE Conc. used in PK/PD analysis, individual animals: 58 ng/mL and 71 ng/mL and 63 ng/mL
5 mg/kg IM, cocaine 1 mg/kg IV 2 hr post-AlbuBChE
  Cocaine AUC(0-t), individual animals: 4594 ng·min/mL and 3039 ng·min/mL and 2234 ng·min/mL
5 mg/kg IM, cocaine 1 mg/kg IV 48 hr post-AlbuBChE
  Cocaine AUC(0-t), individual animals: 3323 ng·min/mL and 2628 ng·min/mL and 3095 ng·min/mL
5 mg/kg IM, cocaine 1 mg/kg IV 96 hr post-AlbuBChE
  Cocaine AUC(0-t), individual animals: 6428 ng·min/mL and 6887 ng·min/mL and 6556 ng·min/mL
5 mg/kg IM, cocaine 1 mg/kg IV 120 hr post-AlbuBChE
  Cocaine AUC(0-t), individual animals: 7954 ng·min/mL and 9620 ng·min/mL and 10560 ng·min/mL
5 mg/kg IM, cocaine 1 mg/kg IV 240 hr post-AlbuBChE
  Cocaine AUC(0-t), individual animals: 11173 ng·min/mL and 13745 ng·min/mL and 13937 ng·min/mL
Cynomolgus monkeys, sigmoidal inhibitory effect Emax model, PD parameter cocaine AUC
  AlbuBChE serum concentration that may result in 50% decrease in cocaine concentration (EC50): ~0.6 µg/mL
